This is an account of results in patent US20210230292A1 (DIATHEVA S R L, published 2021).

As usually defined, the Kd is the free concentration of one partner at which half of the binding sites on the other are occupied at equilibrium, for simple one-to-one binding. Low readings indicate a tighter complex, high ones a looser complex.

The experiment has as its target T1, human CD99ecd/GST (human, UniProt P14209 23-122).
T1 construct: Expressed in E. coli BL21(DE3), purified on Glutathione Sepharose; also called CD99ecd/GST antigen; recombinant CD99; not shown: glutathione-S-transferase as encoded by vector pGEX-2T (GE Healthcare); CD99ecd fused downstream of it through the BamHI
T1 sequence: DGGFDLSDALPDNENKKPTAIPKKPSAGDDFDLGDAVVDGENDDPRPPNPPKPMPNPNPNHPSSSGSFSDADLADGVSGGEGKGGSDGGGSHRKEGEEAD
The experiment can be described thus: competitive ELISA (Rath 1988), CD99ecd/GST coated and soluble CD99ecd/GST as inhibitor. On the procedure:
The binding affinity, expressed as the dissociation constant (kd) of scFv C7, C7dAbd, C7IgG4 and C7IgG1 for CD99, was determined by analysing the saturation of binding at equilibrium with a competitive ELISA assay according to the procedure described in Rath S 1988 with small variations. […] For this purpose, 96-well plates were sensitized by distributing 500 ng/well of CD99ecd/GST diluted in 0.5M carbonate buffer, pH 9.6, and incubating ON at 4° C. After 3 washes with PBS supplemented with 0.05% V/V of Tween20, the plates were blocked with a 1% W/V solution of BSA in PBS (PBSB), pH 7.4, for 60 min. at 37° C. After washing, the plates were incubated for 1 hour at 37° C. with serial dilutions of C7 (from 200 μg/ml to 0.03 μg/ml in triplicate) diluted in PBSB and dispensed (100 μl/well). The plates were incubated at 37° C. for 90 minutes. After washing a dilution of polyclonal anti-scFv diluted 1:500 in PBSB was dispensed, 100 μl/well, and incubated for 60 minutes at 37° C. […]
A competitive ELISA assay was then set up. […] The scFvC7 and C7 diabody signal was determined by dispensing, in a first step, a polyclonal anti-scFv antibody generated in rabbits immunized with scFvC7 and diluted 1:500 v/v in PBSB and subsequently with an anti-rabbit HRP diluted 1:1000 v/v. […]
Background: ELISA stands for enzyme-linked immunosorbent assay.

B1: C7IgG4 (antibody)
heavy: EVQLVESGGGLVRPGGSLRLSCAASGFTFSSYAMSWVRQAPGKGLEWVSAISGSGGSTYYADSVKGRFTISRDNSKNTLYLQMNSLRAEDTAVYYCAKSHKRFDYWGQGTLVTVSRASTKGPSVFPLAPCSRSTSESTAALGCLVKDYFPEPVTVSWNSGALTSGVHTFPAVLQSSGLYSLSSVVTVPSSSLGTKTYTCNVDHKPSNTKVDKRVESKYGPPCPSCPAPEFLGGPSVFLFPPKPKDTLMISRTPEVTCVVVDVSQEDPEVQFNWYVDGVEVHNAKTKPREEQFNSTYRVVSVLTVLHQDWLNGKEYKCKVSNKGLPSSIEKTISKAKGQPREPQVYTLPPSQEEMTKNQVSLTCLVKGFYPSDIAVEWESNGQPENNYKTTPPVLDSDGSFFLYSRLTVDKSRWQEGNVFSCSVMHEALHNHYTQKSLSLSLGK
light: SSELTQDPAVSVALGQTVRITCQGDSLRSYYASWYQQKPGQAPVLVIYGKNNRPSGIPDRFSGSSSGNTASLTITGAQAEDEADYYCNSSFPRTSSVVFGGGTKLTVLGQPKANPTVTLFPPSSEELQANKATLVCLISDFYPGAVTVAWKADGSPVKAGVETTKPSKQSNNKYAASSYLSLTPEQWKSHRSYSCQVTHEGSTVEKTVAPTECS
notes: VH and VL of scFvC7 fused to human IgG4 constant regions; produced in Expi293F cells; also called IgG4wt; C7IgG4 wt
Regarding B1, the dissociation constant Kd turned out to be 0.00586 µM.

B2: C7IgG1 (antibody)
heavy: not shown
light: B1 light
notes: VH and VL of scFvC7 fused to human IgG1 constant regions; produced in Expi293F cells
B2 gave a Kd of 9 µM.
